According to article PMC3094755, “The DNA-Binding Domain of Human PARP-1 Interacts with DNA Single-Strand Breaks as a Monomer through Its Second Zinc Finger”:

How the values were obtained:
Settings in all cases: protein: recombinant; label: fluorescein-dT at T8; single-chain dumbbell, 18 bp with central nick, two tetraloops
PARP-1 F2 [1] = molecular target: T1, PARP-1 F2 (Homo sapiens, UniProt P09874 103-214); experiment: fluorescence anisotropy; 75; 50 mM Tris-HCl pH 7.0, 150 uM ZnSO4, 4 mM DTT, 25 C; NaCl 0-200 mM (T2, as in cof; 10 nM DNA) or 25 mM (T3 mutants; 25 nM DNA)
T1 sequence (P09874 103-214): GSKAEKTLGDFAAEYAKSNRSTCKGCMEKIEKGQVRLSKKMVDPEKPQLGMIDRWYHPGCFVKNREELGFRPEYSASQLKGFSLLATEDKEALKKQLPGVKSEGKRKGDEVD

[2] = molecular target: T2, PARP-1 F1+F2 (24-kDa DBD) (Homo sapiens, UniProt P09874 1-214); experiment: as above
T2 sequence (P09874 1-214): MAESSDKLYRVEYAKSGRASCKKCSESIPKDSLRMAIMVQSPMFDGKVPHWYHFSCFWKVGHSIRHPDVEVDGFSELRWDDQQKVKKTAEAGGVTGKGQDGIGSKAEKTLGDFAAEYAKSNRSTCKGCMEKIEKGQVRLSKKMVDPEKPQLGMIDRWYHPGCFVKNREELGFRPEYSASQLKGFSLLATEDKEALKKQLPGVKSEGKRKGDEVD

PARP-1 F2 [3] = molecular target: T1, PARP-1 F2; experiment: fluorescence anisotropy; 25 mM NaCl, one-site fit; 50 mM Tris-HCl pH 7.0, 150 uM ZnSO4, 4 mM DTT, 25 C; NaCl 0-200 mM (T2, as in cof; 10 nM DNA) or 25 mM (T3 mutants; 25 nM DNA)
PARP-1 F2 K131I/G135D = PARP-1 F2 K131I/G135D (Homo sapiens, UniProt P09874 103-214, K131I;G135D); experiment: as above
Chain of PARP-1 F2 K131I/G135D (P09874 103-214 K131I/G135D): as the sequence (P09874 103-214) above, with K29I, G33D counted along it

PARP-1 F2 K141I = PARP-1 F2 K141I (Homo sapiens, UniProt P09874 103-214, K141I); experiment: as above
Chain of PARP-1 F2 K141I (P09874 103-214 K141I): as the sequence (P09874 103-214) above, with K39I counted along it

PARP-1 F2 R138I = PARP-1 F2 R138I (Homo sapiens, UniProt P09874 103-214, R138I); experiment: as above
Chain of PARP-1 F2 R138I (P09874 103-214 R138I): as the sequence (P09874 103-214) above, with R36I counted along it

PARP-1 F2 S120G = PARP-1 F2 S120G (Homo sapiens, UniProt P09874 103-214, S120G); experiment: as above
Chain of PARP-1 F2 S120G (P09874 103-214 S120G): as the sequence (P09874 103-214) above, with S18G counted along it

PARP-1 F2 G135D = PARP-1 F2 G135D (Homo sapiens, UniProt P09874 103-214, G135D); experiment: as above
Chain of PARP-1 F2 G135D (P09874 103-214 G135D): as the sequence (P09874 103-214) above, with G33D counted along it

PARP-1 F2 K119I = PARP-1 F2 K119I (Homo sapiens, UniProt P09874 103-214, K119I); experiment: as above
Chain of PARP-1 F2 K119I (P09874 103-214 K119I): as the sequence (P09874 103-214) above, with K17I counted along it

PARP-1 F2 K141I/K142I = PARP-1 F2 K141I/K142I (Homo sapiens, UniProt P09874 103-214, K141I;K142I); experiment: as above
Chain of PARP-1 F2 K141I/K142I (P09874 103-214 K141I/K142I): as the sequence (P09874 103-214) above, with K39I, K40I counted along it

PARP-1 F2 K134I = PARP-1 F2 K134I (Homo sapiens, UniProt P09874 103-214, K134I); experiment: as above
Chain of PARP-1 F2 K134I (P09874 103-214 K134I): as the sequence (P09874 103-214) above, with K32I counted along it

PARP-1 F2 K197I = PARP-1 F2 K197I (Homo sapiens, UniProt P09874 103-214, K197I); experiment: as above
Chain of PARP-1 F2 K197I (P09874 103-214 K197I): as the sequence (P09874 103-214) above, with K95I counted along it

PARP-1 F2 W157I = PARP-1 F2 W157I (Homo sapiens, UniProt P09874 103-214, W157I); experiment: as above
Chain of PARP-1 F2 W157I (P09874 103-214 W157I): as the sequence (P09874 103-214) above, with W55I counted along it

[4] = molecular target: T2, PARP-1 F1+F2 (24-kDa DBD); experiment: fluorescence anisotropy; 25; 50 mM Tris-HCl pH 7.0, 150 uM ZnSO4, 4 mM DTT, 25 C; NaCl 0-200 mM (T2, as in cof; 10 nM DNA) or 25 mM (T3 mutants; 25 nM DNA)
[5] = molecular target: T2, PARP-1 F1+F2 (24-kDa DBD); experiment: fluorescence anisotropy; 0; 50 mM Tris-HCl pH 7.0, 150 uM ZnSO4, 4 mM DTT, 25 C; NaCl 0-200 mM (T2, as in cof; 10 nM DNA) or 25 mM (T3 mutants; 25 nM DNA)

B1: 44-nt nicked dumbbell, 5'-phosphate, fluorescein-dT (structured_DNA)
DNA: CGGTCGATCGTAAGATCGACCGGCGCTGGAGCTTGCTCCAGCGC
modifications: 5'-phosphate
Kd (PARP-1 F2 [1]): 218 nM | Kd [2]: 37 nM | Kd (PARP-1 F2 [3]): 343 nM | Kd (PARP-1 F2 K131I/G135D): 3750 nM | Kd (PARP-1 F2 K141I): 1490 nM | Kd (PARP-1 F2 R138I): 19800 nM | Kd (PARP-1 F2 S120G): 2430 nM | Kd (PARP-1 F2 G135D): 1710 nM | Kd (PARP-1 F2 K119I): 4550 nM | Kd (PARP-1 F2 K141I/K142I): 3930 nM | Kd (PARP-1 F2 K134I): 3330 nM | Kd (PARP-1 F2 K197I): 664 nM | Kd (PARP-1 F2 W157I): 4930 nM | Kd [4]: 20.4 nM | Kd [5]: 5.75 nM
